Results reported in US20190315864A1.

Target: Fc protein
Assay: ELISA, Fc protein coated, 10 ng VHH/well

OD (against Fc) [OD405]	Binder
0.752	CTLA4 heavy chain single domain antibody No. J38 (VHH) VHH: QVQLQESGGGSVQAGGSLRLSCAPSRYSGALMGWFRQAPGKEREGVAVISRSGLTTYYADSVKGRFTISQDTAKNTIYLQMNSMKPEDTAMYYCVAGWHVGGTWSETSSYDYWGQGTQVTVSS
1.02	CTLA4 heavy chain single domain antibody No. 188 (VHH) VHH: QVQLQESGGGSVQAGGSLRLSCAASGYTYSSVCMGWFRQALGKEREAVVGIDGDGITMYANSVKGRFTISKDNAKNTLYLQMNSLKPEDTAMYYCASGGGQGDGSCALTYWGQGTQVTVSS
